Measured values as given in publication PMC9179170 (Nature, 2021).

Target: Hsp90α ATP-binding-deficient mutant Hsp90(D93N) (human, UniProt P07900 1-732, D93N)
Experiment: cryo-EM structure

binding result: binds
B1: MBP–GRLBD(520–777) (F602S) (domain or fragment, UniProt P04150 520-777, looked up)
chain: IVPATLPQLTPTLVSLLEVIEPEVLYAGYDSSVPDSTWRIMTTLNMLGGRQVIAAVKWAKAIPGFRNLHLDDQMTLLQYSWMSLMAFALGWRSYRQSSANLLCFAPDLIINEQRMTLPCMYDQCKHMLYVSSELHRLQVSYEEYLCMKTLLLLSSVPKDGLKSQELFDEIRMTYIKELGKAIVKREGNSSQNWQRFYQLTKLLDSMHEVVENLLNYCFQTFLDKTMSIEFPEMLAEIITNQIPKYSNGNIKKLLFHQK
